Experiments:
Conditions in all cases: Homo sapiens; call rule not given here
[1] = substrate: C[C@H](Cn1cnc2c(N)ncnc21)OCP(=O)(O)O; test: (§1) Activity of recombinant AK1 (unknown origin) assessed as ADP formation by spectroscopic pyruvate kinase/lactate dehydrogenase coupled assay
[2] = substrate: Nc1ncnc2c1ncn2-c1ccc(CO)o1; test: as §1
[3] = substrate: Nc1ncnc2c1ncn2-c1ccc(COCP(=O)(O)O)o1; test: as §1
[4] = substrate: Nc1ncnc2c1ncn2CCOCP(=O)(O)O; test: as §1
[5] = substrate: Nc1ncnc2c1ncn2[C@@H]1O[C@H](COP(=O)(O)O)[C@@H](O)[C@H]1O; test: as §1
[6] = substrate: Nc1ncnc2c1ncn2[C@H]1C[C@H](O)[C@@H](COP(=O)(O)O)O1; test: as §1
[7] = substrate: C[C@H](Cn1cnc2c(N)ncnc21)OCP(=O)(O)O; test: (§2) Ratio of Kcat to Km for recombinant AK1 (unknown origin)
[8] = substrate: Nc1ncnc2c1ncn2-c1ccc(CO)o1; test: as §2
[9] = substrate: Nc1ncnc2c1ncn2-c1ccc(COCP(=O)(O)O)o1; test: as §2
[10] = substrate: Nc1ncnc2c1ncn2CCOCP(=O)(O)O; test: as §2
[11] = substrate: Nc1ncnc2c1ncn2[C@@H]1O[C@H](COP(=O)(O)O)[C@@H](O)[C@H]1O; test: as §2
[12] = substrate: Nc1ncnc2c1ncn2[C@H]1C[C@H](O)[C@@H](COP(=O)(O)O)O1; test: as §2

B1: Adenylate kinase isoenzyme 1 (Homo sapiens), P00568 (protein)
chain: MEEKLKKTKIIFVVGGPGSGKGTQCEKIVQKYGYTHLSTGDLLRSEVSSGSARGKKLSEIMEKGQLVPLETVLDMLRDAMVAKVNTSKGFLIDGYPREVQQGEEFERRIGQPTLLLYVDAGPETMTQRLLKRGETSGRVDDNEETIKKRLETYYKATEPVIAFYEKRGIVRKVNAEGSVDSVFSQVCTHLDALK
B1 was tested, and the Km [1] was 3000 µM, the kcat [1] was 0.22 s⁻¹ and the Km [2] was “Not Active”. For the same protein, the kcat [2] was “Not Active”, the Km [3] was “Not Active” and the kcat [3] was “Not Active”. For the same protein, the Km [4] was 6000 µM, the kcat [4] was 0.08 s⁻¹ and the Km [5] was 175 µM. For the same protein, the kcat [5] was 500 s⁻¹, the Km [6] was 1500 µM and the kcat [6] was 240 s⁻¹. The kcat/Km [7] was 75 M⁻¹ s⁻¹, the kcat/Km [8] was “Not Active” and the kcat/Km [9] was “Not Active”. It also gave a kcat/Km [10] of 14 ×10⁶ /M/s, a kcat/Km [11] of 2.85 ×10⁶ /M/s and a kcat/Km [12] of 0.16 ×10⁶ /M/s.
